Earlier results, collected in paper PMC3268021.
Like-named read-outs stand apart in the source and are kept apart here. Each block holds one substance with its values, some of them ahead of it.

Legend:
[1] = target: TXA2R (ligand-free) (UniProt P21731)
[2] = target: TXA2R (agonist-activated) (UniProt P21731)
[3] = target: phospholipase C (UniProt P19174)
[4] = target: phospholipase C (UniProt P19174); remark: listed apart in the source
[5] = target: Calmodulin (UniProt P0DP23)

Sequence of UniProt P19174 (P19174 2-1290): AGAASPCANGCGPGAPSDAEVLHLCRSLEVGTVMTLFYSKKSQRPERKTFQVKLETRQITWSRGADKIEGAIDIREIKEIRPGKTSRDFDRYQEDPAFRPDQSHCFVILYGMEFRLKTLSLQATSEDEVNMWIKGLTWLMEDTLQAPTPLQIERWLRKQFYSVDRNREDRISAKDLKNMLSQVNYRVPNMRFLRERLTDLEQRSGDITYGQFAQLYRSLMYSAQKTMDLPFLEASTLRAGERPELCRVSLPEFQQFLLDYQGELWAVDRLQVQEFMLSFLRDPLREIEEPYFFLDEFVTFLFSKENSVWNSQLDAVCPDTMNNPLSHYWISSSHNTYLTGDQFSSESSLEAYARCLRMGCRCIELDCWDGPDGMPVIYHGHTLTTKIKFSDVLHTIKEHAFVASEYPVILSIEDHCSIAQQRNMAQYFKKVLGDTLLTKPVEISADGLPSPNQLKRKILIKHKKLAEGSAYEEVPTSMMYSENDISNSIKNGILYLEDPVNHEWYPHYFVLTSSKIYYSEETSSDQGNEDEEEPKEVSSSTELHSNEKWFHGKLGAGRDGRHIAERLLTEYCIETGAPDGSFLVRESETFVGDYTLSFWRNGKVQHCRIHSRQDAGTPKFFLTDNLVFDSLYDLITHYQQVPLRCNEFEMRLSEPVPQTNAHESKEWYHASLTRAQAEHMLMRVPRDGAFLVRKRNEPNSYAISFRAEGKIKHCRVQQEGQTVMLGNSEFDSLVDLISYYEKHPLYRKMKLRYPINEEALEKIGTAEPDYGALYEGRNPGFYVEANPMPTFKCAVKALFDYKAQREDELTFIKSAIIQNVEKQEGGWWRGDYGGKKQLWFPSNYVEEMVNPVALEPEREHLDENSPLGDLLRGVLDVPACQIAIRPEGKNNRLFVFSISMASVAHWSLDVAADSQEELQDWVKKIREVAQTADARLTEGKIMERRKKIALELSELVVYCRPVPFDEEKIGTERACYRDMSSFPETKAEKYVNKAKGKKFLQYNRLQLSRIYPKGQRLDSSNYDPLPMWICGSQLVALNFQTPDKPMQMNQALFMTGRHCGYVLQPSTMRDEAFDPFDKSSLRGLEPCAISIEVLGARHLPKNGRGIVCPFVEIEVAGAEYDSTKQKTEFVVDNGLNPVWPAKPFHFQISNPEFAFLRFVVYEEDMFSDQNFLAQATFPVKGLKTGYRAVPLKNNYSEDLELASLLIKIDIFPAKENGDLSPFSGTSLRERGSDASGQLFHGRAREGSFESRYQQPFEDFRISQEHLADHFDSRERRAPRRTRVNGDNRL

- Kd [1]: 17 µM
- Kd [2]: 240 µM
Substance: Gαq C-terminal peptide C-terminal 15-mer peptide (from UniProt P50148)

- Ki [3]: 120 µM
- Ki [4]: 3.5 µM
Substance: PCI-peptide 724-736 724-736 (from UniProt P19174)

- Kd [5]: 0.002 µM
Substance: pAC28 peptide of AC1 495-522 (from UniProt P19754)
